Measurements published in the RNAGym collection of RNA variant scans (doi:10.1038/ncomms11558).

B1: mRNA-splicing (parent)
chain: GAUCCAGAUCUAACUUGGGGUGGCUUUGUCUUCUUCUUUUGCCAAUUCCACUAAUUGUUUGGG

Variants of: B1
Experiment: exon inclusion enrichment score (log2 ratio to wild type); higher = more inclusion; FAS exon 6 minigene, HEK293

Row | Variant | exon inclusion enrichment score
1 | A8C | 0.321
2 | A8U | -0.416
3 | A8G | 0.152
4 | U46A | 0.041
5 | U46C | 0.336
6 | U46G | 0.344
7 | A44U | -1.32
8 | A44G | 0.314
9 | A44C | -0.731
10 | A50G | 0.131
11 | A50C | -3.91
12 | A50U | -1.12
13 | C49A | 1.46
14 | C49G | 0.869
15 | C49U | -0.226
16 | U47C | -2.08
17 | U47A | -0.214
18 | U47G | -1.62
19 | A13G | -0.194
20 | A13C | 1.26
21 | A13U | -0.29
22 | U25G | 0.284
23 | U25C | 0.429
24 | U25A | 0.211

Row | Variant | exon inclusion enrichment score
25 | U29C | 0.119
26 | U29G | -3.82
27 | U29A | 0.257
28 | A45G | -0.008
29 | A45U | -1.33
30 | A45C | -3.69
31 | U11C | 0.559
32 | U11G | 0.304
33 | U11A | 0.08
34 | C33G | -2.4
35 | C33U | -4.54
36 | C33A | -3.75
37 | C36U | -2.31
38 | C36A | -0.688
39 | C36G | -0.112
40 | C51A | -1.68
41 | C51G | 0.038
42 | C51U | -1.53
43 | C5U | -4.59
44 | C5A | -0.066
45 | C5G | -0.076
46 | G20C | 0
47 | G20A | 0.232
48 | G20U | -2.17

Row | Variant | exon inclusion enrichment score
49 | U15A | -0.077
50 | U15G | 0.039
51 | U15C | 0.272
52 | U37A | 0.26
53 | U37C | 0.225
54 | U37G | 0.33
55 | U38C | 0.106
56 | U38G | 0.274
57 | U38A | -0.025
58 | G22U | -0.589
59 | G22C | 0.067
60 | G22A | -2.09
61 | U58G | -0.27
62 | U58A | 0.099
63 | U58C | -0.116
64 | C48G | -1.23
65 | C48U | -2.35
66 | C48A | -1.74
67 | U31A | 0.242
68 | U31G | -1.2
69 | U31C | -0.076
70 | U60A | -2.55
71 | U60G | -0.709
72 | U60C | -0.19

Row | Variant | exon inclusion enrichment score
73 | G7C | -0.443
74 | G7U | -2.07
75 | G7A | -1.15
76 | A2U | -0.046
77 | A2C | -0.31
78 | A2G | 0.511
79 | U21C | 0.243
80 | U21A | 0.125
81 | U21G | -5.29
82 | G23A | 0.238
83 | G23C | -0.164
84 | G23U | -0.765
85 | U35G | 0.167
86 | U35A | -0.045
87 | U35C | 0.127
88 | G19C | 0.027
89 | G19A | 0.892
90 | G19U | 0.032
91 | U55G | 0.117
92 | U55A | 0.386
93 | U55C | 0.069
94 | U26C | -0.07
95 | U26A | 0.39
96 | U26G | -0.547

Row | Variant | exon inclusion enrichment score
97 | U16A | -0.773
98 | U16G | -0.702
99 | U16C | 0.271
100 | G62C | -0.199
101 | G62U | -0.581
102 | G62A | -0.115
103 | A53U | -0.046
104 | A53G | 0.229
105 | A53C | -0.152
106 | C42A | -0.179
107 | C42G | -0.175
108 | C42U | -1.2
109 | U39A | 0.361
110 | U39G | 0.267
111 | U39C | 0.236
112 | C14A | -0.554
113 | C14G | -0.135
114 | C14U | -0.791
115 | C10U | 0.024
116 | C10A | -0.393
117 | C10G | -0.124
118 | C30G | -0.286
119 | C30U | -2.3
120 | C30A | -0.973

Row | Variant | exon inclusion enrichment score
121 | G18A | -0.636
122 | G18C | 0.301
123 | G18U | 0.258
124 | A6U | -0.25
125 | A6C | -0.522
126 | A6G | 0.571
127 | A54U | -0.013
128 | A54C | 0.187
129 | A54G | -0.319
130 | G28A | -1.07
131 | G28C | -1.84
132 | G28U | -1.36
133 | C43U | -2.69
134 | C43G | 0.061
135 | C43A | -0.47
136 | U34A | -0.179
137 | U34C | -0.17
138 | U34G | 0.283
139 | G41U | -1.24
140 | G41A | -0.772
141 | G41C | -1.66
142 | U52G | 0.635
143 | U52C | 0.564
144 | U52A | 0.166

Row | Variant | exon inclusion enrichment score
145 | U32C | -0.05
146 | U32A | -0.129
147 | U32G | 0.176
148 | G57A | -0.066
149 | G57C | -0.537
150 | G57U | 0.003
151 | G63C | -6.23
152 | G63U | -5.1
153 | G63A | -5.7
154 | U27C | 0.72
155 | U27G | -0.115
156 | U27A | -0.647
157 | C4G | -0.794
158 | C4U | -2.86
159 | C4A | -2.11
160 | A12U | -0.405
161 | A12C | 0.251
162 | A12G | 0.431
163 | U3G | -0.136
164 | U3C | -0.472
165 | U3A | -0.683
166 | G61A | -1.32
167 | G61C | 0.061
168 | G61U | -0.154

Row | Variant | exon inclusion enrichment score
169 | U40C | 0.287
170 | U40A | -2.39
171 | U40G | 0.275
172 | U59A | -0.31
173 | U59G | -0.228
174 | U59C | -0.032
175 | C24U | -1.64
176 | C24A | 0.043
177 | C24G | -6.71
178 | U9C | 1.28
179 | U9G | -0.183
180 | U9A | -0.097
181 | U56G | 0.059
182 | U56C | 0.215
183 | U56A | -0.713
184 | G17A | -2.56
185 | G17C | -0.067
186 | G17U | -0.191
187 | G1U | -5.1
188 | G1A | -3.07
189 | G1C | -4.23
